Data published in patent publication US9802997B2, “Peptides and combination of peptides for use in immunotherapy against various tumors” (immatics biotechnologies GmbH, priority 2015, dated 2017).

The substances below were run against HLA-A*02:01 (Homo sapiens, UniProt P04439, D140Y/D185E/D98H/E176V/E277Q/G131W/G231S/I119V/I121R/I166T/I218V/L300P/L318F/N151K/N90K/P208A/P217A/Q86G/Q94H/R138H/R169H/T345S) (assay: MHC binding assay (UV-ligand exchange, beta2m ELISA)). Conditions: binding to HLA-A*02:01, β2m ELISA.
Outline: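 Binding capacity is expressed as the yield of UV-mediated ligand exchange, reflecting how well each peptide stabilizes peptide-receptive MHC. Stabilized complexes are read out by anti-β2m HRP ELISA (450 nm) after streptavidin capture, with refolded MLA-001 monomer standards for quantitation.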

**Q.** “216 (ALSTVTPRI; listed as Homo sapiens) [compound 216]” was tested. Which “Peptide exchange (MHC class I binding score, peptide exchange yield)” value (from here on “Peptide exchange”) did it give?
**A.** Its value is “++ (≧20% = ++)”.

**Q.** How did the “Peptide exchange” value turn out when “217 (LLWPSSVPA; listed as Homo sapiens) [compound 217]” was run?
**A.** Its value is “+++ (≧50 = +++)”.

**Q.** Which “Peptide exchange” value does the source give for “218 (SLTGANITV; listed as Homo sapiens) [compound 218]” here?
**A.** Its value is “+++ (≧50 = +++)”.

**Q.** With “219 (GVVPTIQKV; listed as Homo sapiens) [compound 219]” as the substance, how does the “Peptide exchange” value read?
**A.** The value was “++ (≧20% = ++)”.

**Q.** For “220 (ALSELERVL; listed as Homo sapiens) [compound 220]”, which “Peptide exchange” value is on record?
**A.** The value was “+++ (≧50 = +++)”.

**Q.** For “221 (IMLNSVEEI; listed as Homo sapiens) [compound 221]”, which “Peptide exchange” value is on record?
**A.** The value was “++ (≧20% = ++)”.

**Q.** Which “Peptide exchange” value does the source give for “222 (LLTGVFAQL; listed as Homo sapiens) [compound 222]” here?
**A.** The value was “++ (≧20% = ++)”.

**Q.** “223 (ALHPVQFYL; listed as Homo sapiens) [compound 223]” was tested. Which “Peptide exchange” value did it give?
**A.** Its value is “+++ (≧50 = +++)”.

**Q.** How did the “Peptide exchange” value turn out when “224 (LLFDWSGTGRADA; listed as Homo sapiens) [compound 224]” was run?
**A.** Its value is “+++ (≧50 = +++)”.

**Q.** Which “Peptide exchange” value does the source give for “225 (FLPQPVPLSV; listed as Homo sapiens) [compound 225]” here?
**A.** Its value is “+++ (≧50 = +++)”.

**Q.** “226 (SLAGNLQEL; listed as Homo sapiens) [compound 226]” was tested. Which “Peptide exchange” value did it give?
**A.** The value was “+++ (≧50 = +++)”.

**Q.** For “227 (SEMEELPSV; listed as Homo sapiens) [compound 227]”, which “Peptide exchange” value is on record?
**A.** The value was “+ (≧10% = +)”.

**Q.** Which “Peptide exchange” value does the source give for “228 (SLLELDGINLRL; listed as Homo sapiens) [compound 228]” here?
**A.** The value was “+++ (≧50 = +++)”.

**Q.** For “229 (YLYELEHAL; listed as Homo sapiens) [compound 229]”, which “Peptide exchange” value is on record?
**A.** Its value is “++ (≧20% = ++)”.

**Q.** With “230 (KLLNMIFSI; listed as Homo sapiens) [compound 230]” as the substance, how does the “Peptide exchange” value read?
**A.** The value was “+++ (≧50 = +++)”.

**Q.** Which “Peptide exchange” value does the source give for “231 (LLDDIFIRL; listed as Homo sapiens) [compound 231]” here?
**A.** Its value is “+++ (≧50 = +++)”.

**Q.** With “234 (VLLNEILEQV; listed as Homo sapiens) [compound 234]” as the substance, how does the “Peptide exchange” value read?
**A.** The value was “++++ (≧75% = ++++)”.

**Q.** “235 (SLLNQPKAV; listed as Homo sapiens) [compound 235]” was tested. Which “Peptide exchange” value did it give?
**A.** The value was “++ (≧20% = ++)”.

**Q.** For “237 (ALLEQTGDMSL; listed as Homo sapiens) [compound 237]”, which “Peptide exchange” value is on record?
**A.** Its value is “+++ (≧50 = +++)”.

**Q.** With “238 (HLQEKLQSL; listed as Homo sapiens) [compound 238]” as the substance, how does the “Peptide exchange” value read?
**A.** Its value is “++ (≧20% = ++)”.

**Q.** With “239 (VIIKGLEEITV; listed as Homo sapiens) [compound 239]” as the substance, how does the “Peptide exchange” value read?
**A.** Its value is “+++ (≧50 = +++)”.

**Q.** For “241 (KQFEGTVEI; listed as Homo sapiens) [compound 241]”, which “Peptide exchange” value is on record?
**A.** The value was “+++ (≧50 = +++)”.

**Q.** Which “Peptide exchange” value does the source give for “243 (GLAEFQENV; listed as Homo sapiens) [compound 243]” here?
**A.** Its value is “++ (≧20% = ++)”.

**Q.** For “244 (NVAEIVIHI; listed as Homo sapiens) [compound 244]”, which “Peptide exchange” value is on record?
**A.** The value was “+++ (≧50 = +++)”.

**Q.** “245 (ALLEEEEGV; listed as Homo sapiens) [compound 245]” was tested. Which “Peptide exchange” value did it give?
**A.** Its value is “++ (≧20% = ++)”.

**Q.** How did the “Peptide exchange” value turn out when “247 (NLLIDDKGTIKL; listed as Homo sapiens) [compound 247]” was run?
**A.** Its value is “++ (≧20% = ++)”.

**Q.** For “248 (VLMQDSRLYL; listed as Homo sapiens) [compound 248]”, which “Peptide exchange” value is on record?
**A.** The value was “+++ (≧50 = +++)”.

**Q.** With “249 (YLYQILQGI; listed as Homo sapiens) [compound 249]” as the substance, how does the “Peptide exchange” value read?
**A.** Its value is “+++ (≧50 = +++)”.

**Q.** “250 (LMQDSRLYL; listed as Homo sapiens) [compound 250]” was tested. Which “Peptide exchange” value did it give?
**A.** Its value is “+++ (≧50 = +++)”.

**Q.** For “251 (LLWGNLPEI; listed as Homo sapiens) [compound 251]”, which “Peptide exchange” value is on record?
**A.** The value was “+++ (≧50 = +++)”.

**Q.** How did the “Peptide exchange” value turn out when “252 (SLMEKNQSL; listed as Homo sapiens) [compound 252]” was run?
**A.** Its value is “++ (≧20% = ++)”.

**Q.** With “253 (KLLAVIHEL; listed as Homo sapiens) [compound 253]” as the substance, how does the “Peptide exchange” value read?
**A.** Its value is “+++ (≧50 = +++)”.

**Q.** “256 (FLNDIFERI; listed as Homo sapiens) [compound 256]” was tested. Which “Peptide exchange” value did it give?
**A.** The value was “+++ (≧50 = +++)”.

**Q.** Which “Peptide exchange” value does the source give for “258 (QLVQRVASV; listed as Homo sapiens) [compound 258]” here?
**A.** The value was “++ (≧20% = ++)”.

**Q.** Which “Peptide exchange” value does the source give for “259 (GPGIFPPPPPQP; listed as Homo sapiens) [compound 259]” here?
**A.** The value was “+ (≧10% = +)”.

**Q.** Which “Peptide exchange” value does the source give for “261 (GLAALAVHL; listed as Homo sapiens) [compound 261]” here?
**A.** Its value is “+++ (≧50 = +++)”.

**Q.** Which “Peptide exchange” value does the source give for “262 (LLLEAVWHL; listed as Homo sapiens) [compound 262]” here?
**A.** The value was “+++ (≧50 = +++)”.

**Q.** “265 (FLLDKPQDLSI; listed as Homo sapiens) [compound 265]” was tested. Which “Peptide exchange” value did it give?
**A.** Its value is “+++ (≧50 = +++)”.

**Q.** Which “Peptide exchange” value does the source give for “266 (FLLDKPQDL; listed as Homo sapiens) [compound 266]” here?
**A.** The value was “++ (≧20% = ++)”.

**Q.** How did the “Peptide exchange” value turn out when “268 (SLDKDIVAL; listed as Homo sapiens) [compound 268]” was run?
**A.** The value was “++ (≧20% = ++)”.

**Q.** For “269 (GLLDCPIFL; listed as Homo sapiens) [compound 269]”, which “Peptide exchange” value is on record?
**A.** Its value is “++++ (≧75% = ++++)”.

**Q.** For “270 (TLLTFFHEL; listed as Homo sapiens) [compound 270]”, which “Peptide exchange” value is on record?
**A.** Its value is “+++ (≧50 = +++)”.

**Q.** For “271 (VLIEYNFSI; listed as Homo sapiens) [compound 271]”, which “Peptide exchange” value is on record?
**A.** Its value is “+++ (≧50 = +++)”.

**Q.** With “272 (FVMEGEPPKL; listed as Homo sapiens) [compound 272]” as the substance, how does the “Peptide exchange” value read?
**A.** Its value is “++ (≧20% = ++)”.

**Q.** Which “Peptide exchange” value does the source give for “273 (SLNKQIETV; listed as Homo sapiens) [compound 273]” here?
**A.** The value was “++ (≧20% = ++)”.

**Q.** With “274 (TLYNPERTITV; listed as Homo sapiens) [compound 274]” as the substance, how does the “Peptide exchange” value read?
**A.** Its value is “+++ (≧50 = +++)”.

**Q.** With “275 (AVPPPPSSV; listed as Homo sapiens) [compound 275]” as the substance, how does the “Peptide exchange” value read?
**A.** Its value is “++ (≧20% = ++)”.

**Q.** For “276 (RMPTVLQCV; listed as Homo sapiens) [compound 276]”, which “Peptide exchange” value is on record?
**A.** The value was “+++ (≧50 = +++)”.

**Q.** Which “Peptide exchange” value does the source give for “277 (KLQEELNKV; listed as Homo sapiens) [compound 277]” here?
**A.** Its value is “+++ (≧50 = +++)”.

**Q.** For “278 (VLEDKVLSV; listed as Homo sapiens) [compound 278]”, which “Peptide exchange” value is on record?
**A.** The value was “+++ (≧50 = +++)”.

**Q.** For “279 (VLMDEGAVLTL; listed as Homo sapiens) [compound 279]”, which “Peptide exchange” value is on record?
**A.** The value was “++ (≧20% = ++)”.

**Q.** “280 (HLWGHALFL; listed as Homo sapiens) [compound 280]” was tested. Which “Peptide exchange” value did it give?
**A.** The value was “+++ (≧50 = +++)”.

**Q.** Which “Peptide exchange” value does the source give for “281 (LLLESDPKVYSL; listed as Homo sapiens) [compound 281]” here?
**A.** The value was “++ (≧20% = ++)”.

**Q.** With “282 (SLYALHVKA; listed as Homo sapiens) [compound 282]” as the substance, how does the “Peptide exchange” value read?
**A.** Its value is “++ (≧20% = ++)”.

**Q.** Which “Peptide exchange” value does the source give for “283 (ALSELLQQV; listed as Homo sapiens) [compound 283]” here?
**A.** Its value is “+++ (≧50 = +++)”.

**Q.** Which “Peptide exchange” value does the source give for “284 (KLMDPGSLPPL; listed as Homo sapiens) [compound 284]” here?
**A.** The value was “++ (≧20% = ++)”.

**Q.** For “285 (MLLDTVQKV; listed as Homo sapiens) [compound 285]”, which “Peptide exchange” value is on record?
**A.** The value was “+++ (≧50 = +++)”.

**Q.** How did the “Peptide exchange” value turn out when “286 (FLTEMVHFI; listed as Homo sapiens) [compound 286]” was run?
**A.** The value was “+++ (≧50 = +++)”.
